# Laboratory results from paper PMC12197737.
# “And” between values parts separate entries of the source, which are not always exact repeats. Identical values can stand only once.
# Target: recombinant TSWV-N protein (tomato spotted wilt virus nucleocapsid N protein) (Tomato spotted wilt virus (TSWV))
# Experiment: cross-linking
substance,measurement,value
recombinant TSWV-N protein (tomato spotted wilt virus nucleocapsid N protein) (natural protein),stoichiometry N,2 and 3
